This note sets out measurements from PMC4773095.

The experiment has as its target NsrR, response regulator from Streptococcus agalactiae COH1 (full length) (Streptococcus agalactiae COH1). The experiment in a line: SEC; Superdex 200 GL 10/300, buffer C (25 mM Tris pH 9.0, 50 mM NaCl, 2 mM PMSF); column calibrated with proteins of known molecular weight. (In general: SEC sorts molecules by how far they enter the pores of the column.)

The stoichiometry N is a count of units in the complex or per binding partner. As to “NsrR, response regulator from Streptococcus agalactiae COH1 (full length) (natural protein)”, the stoichiometry N was 2.
